Experimental data from the supplement of paper PMC12338614.
± gives the uncertainty stated by the source.

B1: library; numbered along this chain (parent)
chain: MEVVDPQQLGMFTEGELMSVGMDTFIHRIDSTEVIYQPRRKRAKLIGKYLMGDLLGEGSYGKVKEVLDSETLCRRAVKILKKKKLRRIPNGEANVKKEIQLLRRLRHKNVIQLVDVLYNEEKQKMYMVMEYCVCGMQEMLDSVPEKRFPVCQAHGYFCQLIDGLEYLHSQGIVHKDIKPGNLLLTTGGTLKISDLGVAEALHPFAADDTCRTSQGSPAFQPPEIANGLDTFSGFKVDIWSAGVTLYNITTGLYPFEGDNIYKLFENIGKGSYAIPGDCGPPLSDLLKGMLEYEPAKRFSIRQIRQHSWFRKKHPPAEAPVPIPPSPDTKDRWRSMTVVPYLEDLHGADEDEDLFDIEDDIIYTQDFTVPGQVPEEEASHNGQRRGLPKAVCMNGTEAAQLSTKSRAEGRAPNPARKACSASSKIRRLSACKQQ

Variants of: B1
Assay: STK11 functional score (HeLa growth suppression), rescaled enrichment; synonymous median = 1, nonsense median = 0 (normalised score)
Details: with HeLa; variant type: missense
Procedure, shortened: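 Functional scores are post/pre-selection log ratios corrected to wild type, rescaled to synonymous and nonsense medians, merged over codons and replicate transfections, and given bootstrapped error. They come from POPCode libraries of codon-optimised STK11 integrated by Bxb1 at an AAVS1 landing pad in HeLa, three regions each transfected three times, with BFP-negative, mCherry-positive integrants sorted by FACS and tiled gDNA amplicons sequenced on NextSeq.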
In the case of MEVVDPQQLGMFTEGELMSVGMDTFIGRIDSTEVIYQPRRKRAKLIGKYLMGDLLGEGSYGKVKEVLDSETLCRRAVKILKKKKLRRIPNGEANVKKEIQLLRRLRHKNVIQLVDVLYNEEKQKMYMVMEYCVCGMQEMLDSVPEKRFPVCQAHGYFCQLIDGLEYLHSQGIVHKDIKPGNLLLTTGGTLKISDLGVAEALHPFAADDTCRTSQGSPAFQPPEIANGLDTFSGFKVDIWSAGVTLYNITTGLYPFEGDNIYKLFENIGKGSYAIPGDCGPPLSDLLKGMLEYEPAKRFSIRQIRQHSWFRKKHPPAEAPVPIPPSPDTKDRWRSMTVVPYLEDLHGADEDEDLFDIEDDIIYTQDFTVPGQVPEEEASHNGQRRGLPKAVCMNGTEAAQLSTKSRAEGRAPNPARKACSASSKIRRLSACKQQ [H27G], the STK11 functional score is reported as 1.54 ± 0.21.
MEVVDPQQLGMFTEGELMSVGMDTFIHRIDSTEVIYQPRRKRAKLIGKYLMGDLLGEGSYGKVKEVLDSETLCRRAVKILKKKKLRRIPNGEANVKKEIQLLRRLRHKNVIQLVDVLYNEEKQKMYMVMEYCVCGMQEMLDSVPEKRFPVCQAHGYFCQLIDGLEYLHSHGIVHKDIKPGNLLLTTGGTLKISDLGVAEALHPFAADDTCRTSQGSPAFQPPEIANGLDTFSGFKVDIWSAGVTLYNITTGLYPFEGDNIYKLFENIGKGSYAIPGDCGPPLSDLLKGMLEYEPAKRFSIRQIRQHSWFRKKHPPAEAPVPIPPSPDTKDRWRSMTVVPYLEDLHGADEDEDLFDIEDDIIYTQDFTVPGQVPEEEASHNGQRRGLPKAVCMNGTEAAQLSTKSRAEGRAPNPARKACSASSKIRRLSACKQQ [Q170H] was tested, and the STK11 functional score was 0.738 ± 0.12.
MEVVDPQQLGMFTEGELMSVGMDTFIHRIDSTEVIYQPRRKRAKLIGKYLMGDLLGEGSYGKVKETLDSETLCRRAVKILKKKKLRRIPNGEANVKKEIQLLRRLRHKNVIQLVDVLYNEEKQKMYMVMEYCVCGMQEMLDSVPEKRFPVCQAHGYFCQLIDGLEYLHSQGIVHKDIKPGNLLLTTGGTLKISDLGVAEALHPFAADDTCRTSQGSPAFQPPEIANGLDTFSGFKVDIWSAGVTLYNITTGLYPFEGDNIYKLFENIGKGSYAIPGDCGPPLSDLLKGMLEYEPAKRFSIRQIRQHSWFRKKHPPAEAPVPIPPSPDTKDRWRSMTVVPYLEDLHGADEDEDLFDIEDDIIYTQDFTVPGQVPEEEASHNGQRRGLPKAVCMNGTEAAQLSTKSRAEGRAPNPARKACSASSKIRRLSACKQQ [V66T] gave an STK11 functional score of 1.12 ± 0.32.
MEVVDPQQLGMFTEGELMSVGMDTFIHRIDSTEVIYQPRRKRAKLIGKYLMGDLLGEGSYGKVKHVLDSETLCRRAVKILKKKKLRRIPNGEANVKKEIQLLRRLRHKNVIQLVDVLYNEEKQKMYMVMEYCVCGMQEMLDSVPEKRFPVCQAHGYFCQLIDGLEYLHSQGIVHKDIKPGNLLLTTGGTLKISDLGVAEALHPFAADDTCRTSQGSPAFQPPEIANGLDTFSGFKVDIWSAGVTLYNITTGLYPFEGDNIYKLFENIGKGSYAIPGDCGPPLSDLLKGMLEYEPAKRFSIRQIRQHSWFRKKHPPAEAPVPIPPSPDTKDRWRSMTVVPYLEDLHGADEDEDLFDIEDDIIYTQDFTVPGQVPEEEASHNGQRRGLPKAVCMNGTEAAQLSTKSRAEGRAPNPARKACSASSKIRRLSACKQQ [E65H] gave an STK11 functional score of 1.36 ± 0.21.
With MEVVDPQQLGMFTEGELMSVGMDTFIHRIDSTEVIYQPRRKRAKLIGKYLMGDLLGEGSYGKVKEVLDSETLCRRAVKILKKKKLRRIPNGEANVKKEIQLLRRLRHKNVIQLVDVLYNEEKQKMYMVMEYCVCGMQEMLDSVPEKRFPVCQAHGYFCQLIDGLEYLHSQGIVHKDIKPGNLLLTTGGTLKISDLGVAEALHPFAADDTCRTSQGSPAFQPPEIANGLDTFSGFKVDIWSAGVTLYNITTGLYPFEGDNIYKLFENIGKGSYAIPGDCGPPLSDLLKGMLEYEPAKRFSIRQIRQHSWFRKKHPPAEAPVPIPPSPDTKDRWRSMTVVPYLEDLHGADEDEDLFDIEDDIIYTQDFTVPGQVPEEEASHNGQRRGLPKAVCMNGTEAAQLSTKSRAEGRAPNPARKHCSASSKIRRLSACKQQ [A417H] the STK11 functional score was 0.849 ± 0.67.
Work on MEVVDPQQLGMFTEGELMSVGMDTFIHRIDSTEVIYQPRRKRAKLIGKYLMGDLLGEGSYGKVKEVLDSETLCRRAVKILKKKKLRRIPNGEANVKKEIQLLRRLRHKNVIQLVDVLYNEEKQKMHMVMEYCVCGMQEMLDSVPEKRFPVCQAHGYFCQLIDGLEYLHSQGIVHKDIKPGNLLLTTGGTLKISDLGVAEALHPFAADDTCRTSQGSPAFQPPEIANGLDTFSGFKVDIWSAGVTLYNITTGLYPFEGDNIYKLFENIGKGSYAIPGDCGPPLSDLLKGMLEYEPAKRFSIRQIRQHSWFRKKHPPAEAPVPIPPSPDTKDRWRSMTVVPYLEDLHGADEDEDLFDIEDDIIYTQDFTVPGQVPEEEASHNGQRRGLPKAVCMNGTEAAQLSTKSRAEGRAPNPARKACSASSKIRRLSACKQQ [Y126H] yielded an STK11 functional score of 0.681 ± 0.86.
Work on MEVVDPQQLGMFTEGELMSVGMDTFIHRIDSTEVIYQPRRKRAKLIGKYLMGDLLGEGSYGKVKEVLDSETLCRRAVKILKKKKLRRIPNGEANVKKEIQLLRRLRHKNVIQLVDVLYNEEKQKMYMVMEYCVCGMQEMLDSVPEKRFPVCQAHGYFCQLIDGLEYLHSQGIVHKDIKPGNLLLTTGGTLKISDLGVAEALHPFAADDTCRTSQGSPAFQPPEIANGLDTFSGFKVDIWSAGVTLYNITTGLYPFEGDNIYKLFENIGKGSYAIPGDCGPPLSDLLKGMLEYEPAKRFSIRQIRQHSWFRKKHPPAEAPVPIPPSPDTKDRWRSMTVVPYLEDLHGADEDEDLFDIEDDIIYTQDFTVPGQVPEEEASHNGQRRGLPKAVCMNGTEAAQLSTKSRAEGRAKNPARKACSASSKIRRLSACKQQ [P411K] yielded an STK11 functional score of 1.57 ± 0.35.
With MEVVDPQQLGMFTEGELMSVGMDTFIHRIDSTEVIYQPRRKRAKLIGKYLMGDLLGEGSYGKVKEVLDSETLCRRAVKILKKKKLRRIPNGEANVKKEIQLLRRLRHKNVIQLVDVLYNEEKQKMYMVMEYCVCGMQEMLDSVPEKRFPVCQAHGYFCQLIDGLEYLHSQGIVHKDIKPGNLLLTTGGTLKISDLGVAEALHPFAADDTCRTSQGSPAFQPPEIANGLDTFSGFKVDIWSAGVTLYNITTGLYPFEGDNIYKLFENIGKGSYAIPGDCGPPLSDLLKGMLEYEPAKRFSIRQIRQHSWFRKKHPPAEAPVPIPPSPDTKDRWRSMTAVPYLEDLHGADEDEDLFDIEDDIIYTQDFTVPGQVPEEEASHNGQRRGLPKAVCMNGTEAAQLSTKSRAEGRAPNPARKACSASSKIRRLSACKQQ [V337A] the STK11 functional score was 1.24 ± 0.17.
In the case of MEVVDPQQLGMFTEGELMSVGMDTFIHRIDSTEVIYQPRRKRAKLIGKYLMGDLLGEGSYGKVKEVLDSETLCRRAVKILKKKKLRRIPNGEANVKKEIQLLRRLRHKNVIQLVDVLYNEEKQKMYMVMEYCVCGMQEMLDSVPEKRFPVCQAHGYFCQLIDGLEYLHSQGIVHKDIKPGNLLLTTGGTLKISDLGVAEALHPFAADDTCRTSQGSPAFQPPEIANGLDTFSGFKVDIWSAGVTLYNITTGLYPFEGLNIYKLFENIGKGSYAIPGDCGPPLSDLLKGMLEYEPAKRFSIRQIRQHSWFRKKHPPAEAPVPIPPSPDTKDRWRSMTVVPYLEDLHGADEDEDLFDIEDDIIYTQDFTVPGQVPEEEASHNGQRRGLPKAVCMNGTEAAQLSTKSRAEGRAPNPARKACSASSKIRRLSACKQQ [D258L], the STK11 functional score is reported as 0.539 ± 0.12.
Variant MEVVDPQQLGMFTEGELMSVGMDTFIHRIDSTEVIYQPRRKRAKLIGKYLMGDLLGEGSYGKVKEVLDSETLCRRAVKILKKKKLRRIPNGEANVKKEIQLLRRLRHKNVIQLVDVLYNEEKQKMYMVMEYCVCGMQEMLDSVPEKRFPVCQAHGYFCQLIDGLEYLHSQGIVHKDIKPGNLLLTTGGTLKISDLGVAEALHPFAADDTCRTSQGSPAFQPPEIANGLDTFSGFKVDIWSAGVTLYNITTGLYPFEGDNIYKLFENIGKGSYAIPGDCGPPLSDLLKGGLEYEPAKRFSIRQIRQHSWFRKKHPPAEAPVPIPPSPDTKDRWRSMTVVPYLEDLHGADEDEDLFDIEDDIIYTQDFTVPGQVPEEEASHNGQRRGLPKAVCMNGTEAAQLSTKSRAEGRAPNPARKACSASSKIRRLSACKQQ [M289G] has an STK11 functional score of -0.0773 ± 0.11.
With MEVVDPQQLGMFTEGELMSVGMDTFIHRIDSTEVIYQPRRKRAKLIGKYLMGDLLGEGSYGKVKEVLDSETLCRRAVKILKKKKLRRIPNGEANVKKEIQLLRRLRHKNVIQLVDVLYNEEKQKMYMVMEYCVCGMQEMLDSVPEKRFPVCQAHGYFCQLIDGLEYLHSQGIVHKDIKPGNLLLTTGGTLKISDLGVAEALHPFAADDTCRTSQGSPAFQPPEIANGLDTFSGFKVDIWSAGVTLYNITTGLYPFEGDNIYKLFENIGKGSYAIPGDCGPPLSDLLKGMLPYEPAKRFSIRQIRQHSWFRKKHPPAEAPVPIPPSPDTKDRWRSMTVVPYLEDLHGADEDEDLFDIEDDIIYTQDFTVPGQVPEEEASHNGQRRGLPKAVCMNGTEAAQLSTKSRAEGRAPNPARKACSASSKIRRLSACKQQ [E291P] the STK11 functional score was 0.178 ± 0.095.
Variant MEVVDPQQLGMFTEGELMSVGMDTFIHRIDSTEVIYQPRRKRAKLIGKYLMGDLLGEGSYGKVKEVLDSETLCRRAVKILKKKKLRRIPNGEANVKKEIQLLRRLRHKNVIQLVDVLYNEEKQKMYMVMEYCVCGMQEMLDSVPEKRFPVCQAHGYFCQLHDGLEYLHSQGIVHKDIKPGNLLLTTGGTLKISDLGVAEALHPFAADDTCRTSQGSPAFQPPEIANGLDTFSGFKVDIWSAGVTLYNITTGLYPFEGDNIYKLFENIGKGSYAIPGDCGPPLSDLLKGMLEYEPAKRFSIRQIRQHSWFRKKHPPAEAPVPIPPSPDTKDRWRSMTVVPYLEDLHGADEDEDLFDIEDDIIYTQDFTVPGQVPEEEASHNGQRRGLPKAVCMNGTEAAQLSTKSRAEGRAPNPARKACSASSKIRRLSACKQQ [I161H] has an STK11 functional score of -0.2 ± 0.12.
Work on MEVVDPQQLGMFTEGELMSVGMDTFIHRIDSTEVIYQPRRKRAKLIGKYLMGDLLGEGSYGKVKEVLDSETLCRRAVKILKKKKLRRIPNGEANVKKEIQLLRRLRHKNVIQLVDVLYNEEKQKMYMVMEYCVCGMQEMLDSVPEKRFPVCQAHGYFCQLIDGLEYLHSRGIVHKDIKPGNLLLTTGGTLKISDLGVAEALHPFAADDTCRTSQGSPAFQPPEIANGLDTFSGFKVDIWSAGVTLYNITTGLYPFEGDNIYKLFENIGKGSYAIPGDCGPPLSDLLKGMLEYEPAKRFSIRQIRQHSWFRKKHPPAEAPVPIPPSPDTKDRWRSMTVVPYLEDLHGADEDEDLFDIEDDIIYTQDFTVPGQVPEEEASHNGQRRGLPKAVCMNGTEAAQLSTKSRAEGRAPNPARKACSASSKIRRLSACKQQ [Q170R] yielded an STK11 functional score of 1.16 ± 0.33.
Variant MEVVDPQQLGMFTEGELMSVGMDTFIHRIDSTEVIYQPRRKRAKLIGKYLMGDLLGEGSYGKVKEVLDSETLCRRAVKILKKKKLRRIPNGEANVKKEIQLLRRLRHKNVIQLVDVLYNEEKQKMYMVMEYCVCGMQEMLDSVPEKRFPVCQAHGYFCQLIDGLEYLHSQGIVHKDIKPGNLLLTTGGTLKISDLGVAEALHPFAADDTCRTSQGSPAKQPPEIANGLDTFSGFKVDIWSAGVTLYNITTGLYPFEGDNIYKLFENIGKGSYAIPGDCGPPLSDLLKGMLEYEPAKRFSIRQIRQHSWFRKKHPPAEAPVPIPPSPDTKDRWRSMTVVPYLEDLHGADEDEDLFDIEDDIIYTQDFTVPGQVPEEEASHNGQRRGLPKAVCMNGTEAAQLSTKSRAEGRAPNPARKACSASSKIRRLSACKQQ [F219K] has an STK11 functional score of -0.214 ± 0.31.
